From patent publication US20250366499A1, “Flavin-Containing Monoamine Oxidase MAO6sh Capable of Degrading Biogenic Amines and Application Thereof” (Jiangnan University, priority 2024, published 2025)
Values joined by “and” are separate entries in the source; they are usually repeats but may differ in a detail not shown here. Equal values may be shown once.

Assays:
[1] = Enzyme activity measurement (peroxidase-coupled, A510), substrate putrescine; assay type: biochemical
Method: (§1) Enzyme activity measurement: The activity of a biogenic amine oxidase was measured by an indirect measurement method of […]. The amine oxidase acts on biogenic amines to degrade the biogenic amines into corresponding aldehydes and hydrogen peroxide. Under the presence of peroxidase, hydrogen peroxide reacts with 4-aminoantipyrine and 2,4,6-tribromo-3-hydroxybenzoic acid to generate a quinone dye. The product has a maximum absorption value at 510 nm, and the magnitude of the activity of the amine oxidase was linearly related to the color intensity of the product within a certain range, so that the activity of the amine oxidase can be measured by measuring the change in A510.
(§2) The reaction was carried out in a 96-well plate. The reaction system included 20 μl of enzyme solution (80 ug·mL^−1) and 100 μl of prepared solution (including 200 mmol·L^−1 potassium phosphate buffer with a pH of 7.6, 1.5 mmol·L^−1 4-aminoantipyrine, and 1 mmol·L^−1 2,4,6-tribromo-3-hydroxybenzoic acid). To initiate the reaction, 20 μL of biogenic amine solution (10 mmol·L^−1) and 70 µL of peroxidase (1.4 mg·mL^−1) were added, the absorbance was measured at 510 nm, the reaction temperature was 37° C., and the reaction time was 10 min. The change in absorbance of 0.01 per minute was defined as one enzyme activity unit (U).
(§3) Definition of specific activity of monoamine oxidase (U/mg): The enzyme activity per milligram of protein.
(§4) The catalytic ability of the monoamine oxidase MAO6^sh before and after purification was measured respectively using a single biogenic amine as a substrate. Systems containing putrescine, tyramine, histamine, cadaverine, phenylethylamine, tryptamine, spermine or spermidine with a concentration of 10 mmol/L were prepared respectively, the pure enzyme in Example 3 was added to the reaction system after adjusting the protein concentration (80 ug/mL, 20 uL) for reacting for 30 min at 37° C., and the results were shown in
(§5) After the enzyme solution purified in Example 3 was respectively incubated for 30 min in water baths at 15° C., 30° C., 35° C., 40° C., 45° C., 50° C., 55° C. and 60° C., the enzyme activity was measured according to the standard enzyme reaction system to determine the stable temperature range thereof, and the results were shown in FIG. 6. […] When the incubation temperature was 50° C., the residual enzyme activity for putrescine was 36.66%, the residual enzyme activity for cadaverine was 30.55%, and the residual enzyme activity for tryptamine was 26.34%.
The reaction system was the same as that of Example 5, except that the pH of the reaction system was respectively adjusted to 3.0-9.0, the enzyme activity of the recombinant enzyme MAO6^sh under different pH reaction conditions was measured, the relative enzyme activity at each temperature was calculated respectively using a single biogenic amine as a substrate at the highest enzyme activity of 100%, and the results were shown in FIG. 7. When putrescine was used as a substrate, the optimal pH for the MAO6^sh was about 5.0-6.0. When the pH was within the range of 3.0-5.0, the enzyme activity […] rapidly with the increase of the pH. However, under alkaline conditions, the tolerance was stronger than the acid tolerance.
(§6) The reaction system was the same as that of Example 5, except that ethanol with different concentrations (0-20% vol) was added respectively. […] When the concentration of ethanol was about 15 vol %, the relative enzyme activities of the monoamine oxidase MAO6^sh for putrescine, tryptamine and cadaverine were 9.57%, 11.21% and 13.67% respectively (FIG. 9).

[2] = Enzyme activity measurement (peroxidase-coupled, A510), substrate tryptamine; assay type: biochemical
Method: as §1, §2, §3, §4, §5, §6

[3] = Enzyme activity measurement (peroxidase-coupled, A510), substrate cadaverine; assay type: biochemical
Method: as §1, §2, §3, §4, §5, §6

[4] = assay type: biochemical
Method: as §1
The reaction was carried out in a 96-well plate. […] To initiate the reaction, 20 μL of biogenic amine solution (10 mmol·L^−1) and 70 µL of peroxidase (1.4 mg·mL^−1) were added, the absorbance was measured at 510 nm, the reaction temperature was 37° C., and the reaction time was 10 min. The change in absorbance of 0.01 per minute was defined as one enzyme activity unit (U).
The catalytic ability of the monoamine oxidase MAO6^sh before and after purification was measured respectively using a single biogenic amine as a substrate. […]

[5] = Degradation in commercially available Huangjiu, tryptamine; assay type: biochemical; settings: Huangjiu 18% vol, enzyme 200 μg/ml added 1:1, about 28° C., 48 h
Method: (§7) The content of biogenic amines was detected by high-performance liquid chromatography (HPLC).
(§8) The recombinant monoamine oxidase MAO6^sh prepared in Example 3 was subjected to ultrafiltration and concentration to adjust the protein concentration to 200 μg/ml, and then added to the Huangjiu in a ratio of 1:1 for reacting at a room temperature of about 28° C. for 48 h. The control group was commercially available Huangjiu (18% vol) without enzymes, and the total content of biogenic amines in the control group was 136.2 mg·L^−1.

[6] = Degradation in commercially available Huangjiu, putrescine; assay type: biochemical; settings: Huangjiu 18% vol, enzyme 200 μg/ml added 1:1, about 28° C., 48 h
Method: as §7, §8

[7] = Degradation in commercially available Huangjiu, phenylethylamine; assay type: biochemical; settings: Huangjiu 18% vol, enzyme 200 μg/ml added 1:1, about 28° C., 48 h
Method: as §7, §8

[8] = Degradation in commercially available Huangjiu, cadaverine; assay type: biochemical; settings: Huangjiu 18% vol, enzyme 200 μg/ml added 1:1, about 28° C., 48 h
Method: as §7, §8

[9] = Degradation in commercially available Huangjiu, histamine; assay type: biochemical; settings: Huangjiu 18% vol, enzyme 200 μg/ml added 1:1, about 28° C., 48 h
Method: as §7, §8

[10] = Degradation in commercially available Huangjiu, tyramine; assay type: biochemical; settings: Huangjiu 18% vol, enzyme 200 μg/ml added 1:1, about 28° C., 48 h
Method: as §7, §8

[11] = Degradation in commercially available Huangjiu, spermidine; assay type: biochemical; settings: Huangjiu 18% vol, enzyme 200 μg/ml added 1:1, about 28° C., 48 h
Method: as §7, §8

[12] = Degradation in commercially available Huangjiu, spermine; assay type: biochemical; settings: Huangjiu 18% vol, enzyme 200 μg/ml added 1:1, about 28° C., 48 h
Method: as §7, §8

[13] = Degradation in commercially available Huangjiu, total biogenic amines; assay type: biochemical; settings: Huangjiu 18% vol (control 136.2 mg/L total), enzyme 200 μg/ml added 1:1, about 28° C., 48 h
Method: as §7, §8

[14] = Application in commercially available low-salt soy sauce; assay type: biochemical; settings: enzyme 200 ug/ml, 25° C., 24-48 h
Method: The recombinant monoamine oxidase MAO6^sh prepared in Example 3 was subjected to ultrafiltration and concentration to adjust the protein concentration to 200 ug/ml, and then added to the commercially available low-salt soy sauce for standing at a room temperature (25° C.) for 24-48 h.

[15] = Application in table vinegar; assay type: biochemical; settings: enzyme 200 μg/ml, 25° C., 24-48 h
Method: The recombinant monoamine oxidase MAO6^sh prepared in Example 3 was subjected to ultrafiltration and concentration to adjust the protein concentration to 200 μg/ml, and then added to the commercially available table vinegar for standing at a room temperature (25° C.) for 24-48 h.

[16] = Application in fermented sausage; assay type: biochemical; settings: enzyme 200 μg/ml added to raw material, versus sausage without enzyme
Method: 65-80% of lean meat and 20-35% of fat meat were taken by mass and cleaned, and bones, tendons, myolemma, lymph nodes, blood vessels, lesions and injury sites were removed. The fat meat and the lean meat were separated and cut into 4-5 cm meat pieces. The lean meat and about 5-8% of flake ice were placed in a chopper and chopped for 1-3 min. Based on the mass of pork, […] of sodium nitrite, 2-3% of table salt, 0.2-0.3% of compound phosphate, and 0.05-0.06% of sodium ascorbate were added. Spices, pepper, garlic, chili, and nutmeg were 0.2-0.3% of the raw meat. The recombinant monoamine oxidase MAO6^sh prepared in Example 3 was subjected to ultrafiltration and concentration to adjust the protein concentration to 200 μg/ml, and then added to the sausage raw material for chopping for 1-2 min, and then, the fat meat and about 5-8% of flake ice were added for chopping for 4-6 min. The sausage was pickled and then poured into the sausage casing. The sausage poured into the sausage casing was pickled at 4° C. for 12 h, then heated to 30° C., fermented until the pH decreased to about 5.1, and matured at 14-16° C. for 1-10 d.

[17] = crude enzyme solution, induction at 16° C.
[18] = pure enzyme 80 ug/mL, 10 mmol/L substrate, 37° C., 30 min

B1: MAO6^sh: recombinant flavin-containing monoamine oxidase from Saccharopolyspora hirsuta, amino acid sequence SEQ ID NO. 1, expressed in E. coli BL21/pET28a-MAO6^sh (protein, listed as Saccharopolyspora hirsuta)
chain: MDSYDVVVIGAGFAGLVAARELALRGHAVVVLEARDRIGGRTWTDERLGRRLEMGGTWVHWLQPHVWSEITRYDQRIEPSPSSQAVHWVAGGSAHRGSPEEFDALISPGMDQLARDSRAWFPLPYEPLHRADLDQVDHLSVADYFAGLDLNPVEREVTEGVWAEHFNGPAAVSGYTQAMRWCAAASGNWQLLHQATSGYRLTGGTAALAGAIAADGGAELHLGSVVASVSQDSGGATVSTTDGTSVRARRVICTLPLNVLGTVDFQPALPATKLAASAERTASQGLKTWIRVRGEVAPFTAYAPDSHDLTFVRPEYTVEGDTLLVAFGTRAADLAPDDVDGVARALRVWRDDLEVLEVSGHDWMTDDFSRETWPMQRPEQLTRYLAALQEPHGVVRFAGSDLATGWAGFIDGAVESGLRASRAVQDALRGPRG
With B1 the “residual enzyme activity for putrescine” value ([1]; 30 min incubation at 50° C.) was 36.66%, the “specific enzyme activity for putrescine” value [1, 17] was 15.66 U/mg and the “relative enzyme activity for putrescine” value ([1]; ethanol about 15 vol %) was 9.57%. The “relative enzyme activity for putrescine” value ([1]; ethanol lower than 10% vol) was 29.44%, the “specific enzyme activity for putrescine” value [1, 18] was 161.59 U/mg and the “optimal pH” value ([1]; putrescine as substrate, reaction pH 3.0-9.0) was 5.0-6.0. For the same molecule, the “residual enzyme activity for tryptamine” value ([2]; 30 min incubation at 50° C.) was 26.34%, the “specific enzyme activity for tryptamine” value [2, 17] was 13.94 U/mg and the “relative enzyme activity for tryptamine” value ([2]; ethanol about 15 vol %) was 11.21%. The “relative enzyme activity for tryptamine” value ([2]; ethanol lower than 10% vol) was 30.27%, the “specific enzyme activity for tryptamine” value [2, 18] was 149.16 U/mg and the “residual enzyme activity for cadaverine” value ([3]; 30 min incubation at 50° C.) was 30.55%. The “specific enzyme activity for cadaverine” value [3, 17] was 14.70 U/mg, the “relative enzyme activity for cadaverine” value ([3]; ethanol about 15 vol %) was 13.67% and the “relative enzyme activity for cadaverine” value ([3]; ethanol lower than 10% vol) was 35.78%. For the same molecule, the “specific enzyme activity for cadaverine” value [3, 18] was 146.05 U/mg, the residual enzyme activity ([4]; 30 min incubation, incubation temperature exceeds 45° C.) was “about 30%” and the optimal temperature ([4]; most suitable substrate, reaction temperatures 25-60° C.) was 45-50 °C. The “Degradation rate, Tryptamine” value [5] was 54.07% and 54.06%, the “Degradation rate, Tryptamine” value ([5]; listed as recombinant enzyme) was 54.07% and the “Degradation rate, Putrescine” value [6] was 33.76%. For the same molecule, the “Degradation rate, Phenylethylamine” value [7] was 5.78%, the “Degradation rate, Cadaverine” value [8] was 43.78% and the “Degradation rate, Histamine” value [9] was 21.44%. The “Degradation rate, Tyramine” value [10] was 19.31%, the “Degradation rate, Spermidine” value [11] was 8.51% and the “Degradation rate, Spermine” value [12] was 7.75%. For the same molecule, the “degradation rate for total biogenic amines” value [13] was 25.56%, the “reduction of content of biogenic amines” value [14] was “effectively reduce the content of biogenic amines” and the “reduction of content of biogenic amines” value [15] was “effectively reduce the content of biogenic amines”. The “reduction of content of biogenic amines” value [16] was “effectively reduce the content of biogenic amines”.
